{"source": "patent US20220306702", "proteins": {"B1": {"name": "NLeE from Shigella (Shigella NleE) (protein)", "chain": "GSMRKKRRQRRRSIEIKMISPIKNIKNVFPINTANTEYIVRNIYPRVEHGYFNESPNIYDKKYISGITRSMAQLKIEEFINEKSRRLNYMKTMYSPCPEDFQPISRDEASTPEGSWLTVISGKRPMGQFSVDSLYHPDLHALCELPEISCKIFPKENSDFLYIIVVFRNDSPQGELRANRFIELYDIKREIMQVLRDESPELKSIKSEIIIAREMGELFSYASEEIDSYIKQMNDRLSQIKARMPVTGSRS"}, "B2": {"name": "wild-type NleE (EPEC NleE) (protein)", "chain": "MINPVTNTQGVSPINTKYAEHVVKNIYPEIKHDYFNESPNIYDKKYISGITRGVAELKQEEFVNEKARRFSYMKTMYSVCPEAFEPISRNEASTPEGSWLTVISGKRPMGQFSVDSLYNPDLHALCELPDICCKIFPKENNDFLYIVVVYRNDSPLGEQRANRFIELYNIKRDIMQELNYELPELKAVKSEMIIAREMGEIFSYMPGEIDSYMKYINNKLSKIE"}}, "key": {"[1]": {"molecular_target": "GST-TAB2 protein substrate [GST: P08515]"}, "[2]": {"molecular_target": "64 other human C4 ZF containing proteins"}}, "data": [{"protein": "B1", "values": [{"measurement": "methylase activity (MTase glo assay)", "setting": "[1]", "value": "the Shigella NleE showed methylase activity at levels comparable to that seen for the EPEC NleE"}]}, {"protein": "B2", "values": [{"measurement": "modification by NleE (cysteine methylation assay)", "setting": "[2]", "value": "But few of them were modified by NleE"}]}]}
